Laboratory results: patent US20040091500A1
Numbering of substitutions follows the chain as printed. Each block holds one binder with its values, some of them ahead of it.

Legend:
[1] = target: Serum IgE from a pool of birch allergic patients (human); test: fluid-phase IgE-inhibition assay
[2] = target: Serum IgE from a pool of birch allergic patients (human); test: fluid-phase IgE-inhibition assay; competitor biotinylated Bet v 1 no. 2801

- factor by which affinity is lowered vs recombinant Bet v 1 [1]: 2 fold
B1: Bet v 1 mutant Asn28Thr+Lys32Gln (protein)
chain: GVFNYETETTSVIPAARLFKAFILDGDTLFPQVAPQAISSVENIEGNGGPGTIKKISFPEGLPFKYVKDRVDEVDHTNFKYNYSVIEGGPIGDTLEKISNEIKIVATPDGGSILKISNKYHTKGDHEVKAEQVKASKEMGETLLRAVESYLLAHSDAYN

- factor by which affinity is lowered vs recombinant Bet v 1 [1]: 2 fold
B3: Bet v 1 Glu45Ser mutant (protein)
chain: B1 chain with T28N, Q32K, E45S

The next lines start with the binder.

B2: Recombinant Bet v 1 No. 2801 (protein)
chain: B1 chain with T28N, Q32K
- amount to reach 80% inhibition [2]: 20 ng

B4: Bet v 1 Pro108Gly mutant (protein)
chain: B1 chain with T28N, Q32K, P108G
- factor by which affinity is lowered vs recombinant Bet v 1 [1]: 2 fold

B5: Bet v 1 Triple-patch mutant (Asn28Thr, Lys32Gln, Glu45Ser, Pro108Gly) (protein)
chain: B1 chain with E45S, P108G
- amount to reach 80% inhibition [2]: 400 ng
- factor of decrease in affinity vs recombinant Bet v 1 (at 50% inhibition) [1]: 5 fold
- factor of decrease vs recombinant Bet v 1 (at 80% inhibition) [1]: 20 fold
